This note sets out measurements from paper PMC8008188.

The target in the assay is bone sialoprotein, full length 90 kDa, of UMR106-01 osteoblastic cultures (rat (endogenous in UMR106-01)) (UniProt P13839). Description: co-elution on anion-exchange chromatography; EDTA extract of mineralizing UMR106-01 cultures on POROS 20 HQ in 0.05 M sodium acetate pH 5.2, 8 M urea, 0.1% CHAPS; 0 to 0.6 M NaCl gradient, then 2 M NaCl step; fractions read by dot blot and Western blot with anti-BSP and anti-6b antibodies.

Where only a bound is given, the exact number is not on record here.

Chain of UniProt P13839 (P13839 17-320): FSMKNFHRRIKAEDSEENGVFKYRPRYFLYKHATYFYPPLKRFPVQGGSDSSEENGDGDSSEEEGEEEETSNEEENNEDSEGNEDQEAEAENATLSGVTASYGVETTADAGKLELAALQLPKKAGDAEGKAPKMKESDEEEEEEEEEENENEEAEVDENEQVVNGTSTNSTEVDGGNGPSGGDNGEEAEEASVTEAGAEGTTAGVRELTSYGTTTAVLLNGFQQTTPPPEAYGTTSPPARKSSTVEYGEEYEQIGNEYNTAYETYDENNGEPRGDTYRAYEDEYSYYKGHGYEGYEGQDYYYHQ

“60 kDa Col11a1 N-terminal domain (NTD) fragment with the “6b” exon sequence (domain or fragment)” displayed a percent of the fragment co-eluting with BSP above 80%.
